Patent US20100248978, “METHOD FOR IDENTIFYING THE INTERACTION PARTNER OF AN ACTIVE AGENT” (Bayer Cropscience AG, published 2010)

Tests used:
Conditions in all cases: tags: His-tag; biotinylated in the SELEX runs
[1] = biological target: T1, p-hydroxyphenylpyruvate dioxygenase (HPPD) (Arabidopsis thaliana, UniProt P93836 P93836:1-445); experiment: filter; nitrocellulose filter retention
T1 sequence: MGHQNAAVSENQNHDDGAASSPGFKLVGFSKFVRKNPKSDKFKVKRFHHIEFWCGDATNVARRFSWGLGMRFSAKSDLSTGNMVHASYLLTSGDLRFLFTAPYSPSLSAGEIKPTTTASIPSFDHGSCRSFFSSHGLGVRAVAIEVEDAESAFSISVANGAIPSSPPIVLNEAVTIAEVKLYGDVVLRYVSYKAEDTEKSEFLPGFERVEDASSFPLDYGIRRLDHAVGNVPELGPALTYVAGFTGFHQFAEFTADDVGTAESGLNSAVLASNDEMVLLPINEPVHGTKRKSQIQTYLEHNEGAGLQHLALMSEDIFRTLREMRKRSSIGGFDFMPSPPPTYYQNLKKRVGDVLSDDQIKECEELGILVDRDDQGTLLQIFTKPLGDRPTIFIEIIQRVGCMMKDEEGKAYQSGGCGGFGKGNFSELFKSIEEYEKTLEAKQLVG
Experimental: (§1) The bound RNA molecules were eluted by heating to 95° C. and amplified by RT-PCR and in vitro transcription before starting the next selection cycle. A nitrocellulose filter retention assay was used to determine binding of selected, radioactively labelled RNA libraries to recombinant protein (Methods in Enzymology, Vol 267, Combinatorial Chemistry, (1996), Abelson J. N. and Simon M. I., eds. Academic Press, San Diego). RNA library (−80 nM) was incubated with increasing concentrations of target protein in binding buffer and subsequently filtered through nitrocellulose filters which bind to proteins but not to RNA molecules. RNA bound to the target protein is retained within the complex on the filter and was quantified by a phosphoimager. Values were calculated as the percentage of total radiolabeled RNA in the reaction.
(§2) To determine the binding properties of individual aptamers isolated as part of the mixture of aptamers binding to HPPD in the previous example, aptamers were cloned into a vector, and 24 clones were sequenced. […]

[2] = biological target: T1, p-hydroxyphenylpyruvate dioxygenase …; experiment: FP; nitrocellulose filter retention (method is filter binding)
Experimental: as §1, §2

[3] = biological target: T1, p-hydroxyphenylpyruvate dioxygenase …; experiment: filter; 20 mM Hepes pH 7.4, 150 mM NaCl, 3 mM MgCl2
Source text: as §1, with “The T7-RNA polymerase promoter is underlined. The double stranded DNA template was used to transcribe the initial RNA library. The procedures to produce an RNA library and to perform a SELEX experiment are well known to a person skilled in the art and described in, e.g., Methods in Enzymology, Vol 267, Combinatorial Chemistry (1996), Abelson J. N. and Simon M. I., eds. Academic Press, San Diego. Subsequently, the complexes between target and RNA were captured on streptavidin-coated beads and unbound RNA was removed by washing with binding buffer. The” for “The”, “reaction. […]” for “reaction.”

B1: S116B-C4 (ssRNA)
RNA: GGGAGAGGAGGGAGAUAGAUAUCAAGUAACAAAUGAUACUUUCCAAGCAUAAUUCAUUCGCAGCCCGAAUUAAGUUUGUCCUCACGGUGGAUGG
Binder B1 has a Kd [1] of 740 nM.

B2: S116C-C18 (ssRNA)
RNA: GGGAGAGGAGGGAGAUAGAUAUCAAUAUCGCCACGUUACGAGUACCAAGCUUUAUUUCCGCAGCCCGAUAGAGUUUGUCCUCACGGUGGAUGG
B2 showed a Kd [1] of 832 nM.

B3: S116D-C8 (ssRNA)
RNA: GGGAGAGGAGGGAGAUAGAUAUCAAUAAAGUCGGUGACACCACGCAUCCAAAUACCGGUACGCGGAACUAAUAGUUUGUCCUCACGGUGGAUGG
Work on B3 yielded a Kd [2] of 120 nM.

B4: S115A-C1 (ssRNA)
RNA: GGGAGAGGAGGGAGAUAGAUAUCAACAAUGACUAGCCGUGUAAGUGGUCUCGUACAUCCGAAAAAGACGACCCAGUUUGUCCUCACGGUGGAUGG
For B4, the Kd [3] was 128 nM.
